Here are results for 2 substances from patent publication US20230220042A1 (SHANGHAI JIAO TONG UNIVERSITY SCHOOL OF MEDICINE, published 2023).

Test [1] concerns the target Biotin-FcγRIIB (human) (UniProt P31994). The experiment in a line: FACS sorting of displayed Fc library on biotin-FcγRIIB, NGS; reference G236V.
Test [2] shares this target. The experiment in a line: FACS sorting of displayed Fc library on biotin-FcγRIIB, NGS.
Test [3] has the same target. The experiment in a line: FACS sorting of displayed Fc library on biotin-FcγRIIB, NGS; reference P271G.
Test [4] deals with Biotin-FcγRIIB (human FcγRIIB, Sino Biological) (human) (UniProt P31994). The experiment in a line: NGS after FACS sort of 3T3-displayed Library4 for biotin-FcγRIIB binding.
Chain of Biotin-FcγRIIB (human FcγRIIB, Sino Biological) (human) (P31994 43-217 limits assumed): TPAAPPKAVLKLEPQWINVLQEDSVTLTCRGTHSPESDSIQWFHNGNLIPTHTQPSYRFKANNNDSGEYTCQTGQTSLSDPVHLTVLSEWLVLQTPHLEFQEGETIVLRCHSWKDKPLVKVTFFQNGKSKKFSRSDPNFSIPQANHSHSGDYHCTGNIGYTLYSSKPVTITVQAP
Test [5] has the same target. The test is described as follows: flow cytometry, 3T3 cells displaying the antibody, biotin-FcγRIIB.
Test [6] has the same target. The experiment in a line: NGS after FACS sort of 3T3-displayed Library2 for biotin-FcγRIIB binding.
Test [7] shares this target. The experiment in a line: flow cytometry, 3T3 cells displaying the antibody, biotin-FcγRIIB + Streptavidin-APC.
For test [8] the target is unchanged. The test is described as follows: NGS after FACS sort of 3T3-displayed LibraryMix for biotin-FcγRIIB binding.

Turning to “human IgG2 anti-mouse CD40 surface displayed antibody, Fc mutant P271G/G236V”, the Increased factor 2 c Site 2 (combined/point mutation) with Biotin-FcγRIIB (human) [1] was determined as 30.5. In the test with Biotin-FcγRIIB (human) [2], the Enrichment factor (after/before sorting) worked out at 10.3 and the Increased factor a (enrichment factor/wild-type enrichment factor) was determined as 13.7. Moreover, the Increased factor 2 c Site 1 (combined/point mutation) in the test with Biotin-FcγRIIB (human) [3] amounted to 2.9.

For “human IgG2 anti-mouse CD40 surface displayed antibody (wild-type Fc)”, the Enrichment factor (percentage after sorting/percentage before sorting) in test [4] was 1.49; in test [6], 0.57; in test [8], 0.75. The same substance came in with a proportion of the cells capable of binding to FcγRIIB in test [5] of 0.23%. For the same substance, the proportion of the cells binding to FcγRIIB in test [7] came to 0.34%.
